{"source": "the nanobody polyreactivity screen of Harvey et al. (2022)"}
{"assay": "yeast display, Sf9 membrane polyspecificity reagent, FACS + sequencing; frameworks hold sequencing errors", "method_in_brief": "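Using colony PCR, genes from sorted yeast display clones were amplified, then sequenced on MiSeq at 2 × 250 and filtered by CDR length. The clones had been stained with 10% biotinylated, detergent-solubilized Sf9 membrane reagent for 1 hour at 4 °C and sorted by FACS into low and high (top ~1%) gates on anti-HA and streptavidin fluorescence. Polyreactivity labels come from the gate of origin.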"}
{"sequence": "QVQLVESGGGLVQAGGSLRLRCAATGSTFVYNAMGWYRPAPGKVRELVARITRSGGSTYYADSVKGRFTISRDNAKNTVYLQMKSLKPEDTAVYYCAKEREGHSVRIGPRYNYWGQGSQVTVSS", "polyreactivity (PSR sort gate)": "low polyreactivity"}
{"sequence": "QVQLVESGGGLVQAGGSLRLRCASSGRTFRYNAMGWYRQAPGKERELVATISSSGGSTSYADSVKGRFTISRDNAKKTVYLQMNSLKPEDTAVYYCNKRRLVAAGNGMDSWGQGTQVTVSS", "polyreactivity (PSR sort gate)": "low polyreactivity"}
{"sequence": "QVQLVESGGGLVQAGGSLRLRCASSGSIFHRNAMGWYRQAPGKERELVATITSNGGSTYYADSVKGRFTISRDNAKNTVFLHMNRLKPEDTAVYFCARKYRSPISALLTGDYWGQGTEVTVSS", "polyreactivity (PSR sort gate)": "low polyreactivity"}
{"sequence": "QVQLVESGGGLVQAGGSLRLRCATSGSIFRIYAMGWYRQAPGKERELVAAIDSGGSTNYADYVKGRFTISRDNAKNTVYFQMNCLKPEDTAVFYCNVEAWWLSYSEYDYWGQGTQVTVSS", "polyreactivity (PSR sort gate)": "high polyreactivity"}
{"sequence": "QVQLVESGGGLVQAGGSLRLRCPASGFIFFWNTMGWYRQAPGKERELVAAISQSGDSTYYADSVKGRFTISRDSAKNTVYLQMNSLKPEDTAVYFWAADKKTITYRYDYWGLGTQVTVSS", "polyreactivity (PSR sort gate)": "low polyreactivity"}
{"sequence": "QVQLVESGGGLVQAGGSLRLRGAASGSTFIFNVRGWYRQAPGKERELVAVISWSGGSTYYADSVKGRFTISRDNAKNTVYLQMNSLKPEDTAVYYCARDQTFGPSPYDWYYYPGYDYWGQGTQVTVSS", "polyreactivity (PSR sort gate)": "low polyreactivity"}
{"sequence": "QVQLVESGGGLVQAGGSLRLRSPASGSTLYRYAMGWYRQAPGKERELVAAIYSSGGTTFYADSVKGRFTISRDNAKKTVYLQMKSLKPEDTAVYYCNRTARKLRTVHSSVVGLDYWGQGTQVTVSS", "polyreactivity (PSR sort gate)": "low polyreactivity"}
{"sequence": "QVQLVESGGGLVQAGGSLRLSAATGSTLAGKTMGWYRQASRKERELVAAINDSGGSTYYADSVKGRFTISRDNAKNSVYLQMNSLKPEDTAVYYCNADGYAYIEDGYDYWGQCTQVTVSS", "polyreactivity (PSR sort gate)": "low polyreactivity"}
{"sequence": "QVQLVESGGGLVQAGGSLRLSCAAAGTYKYYAMGWYRQAPGKERELVAASNRGGSTNYADSVKGRFTISRDNAKNTVYLQMNSLKPEDTAVYYCAAERWYVRGRHYFYWGQGTQVTVSS", "polyreactivity (PSR sort gate)": "high polyreactivity"}
{"sequence": "QVQLVESGGGLVQAGGSLRLSCAACGITFLSNAMGWYRQAPGKERELVAAITTSGGTTYADSVKGRFTISRDNAKNTVYLQMNSLKPEDTAVYYCNAVGYTPRKPSKFDYWGQGTQVTVSS", "polyreactivity (PSR sort gate)": "low polyreactivity"}
{"sequence": "QVQLVESGGGLVQAGGSLRLSCAACGRILWTYAMGLYRQAPGKERELVADISRTGSTNYADSVKGRFTISRDNAKNTVYLQMNSLKPEDTAVYYCAADRWAHTHRLGYWGQGTQVTVSS", "polyreactivity (PSR sort gate)": "low polyreactivity"}
{"sequence": "QVQLVESGGGLVQAGGSLRLSCAACGRTFYQNAMGWYRQAPGKERELVAAISRSGGSTYYADSVKGRFTISLYNAKNTVYLQMNSLKPEDTAVYFCAADPRSYGGGYDYWGQGTQVTVSS", "polyreactivity (PSR sort gate)": "high polyreactivity"}
{"sequence": "QVQLVESGGGLVQAGGSLRLSCAACGSIFLKYVMGWYRQAPGKERELVAAISFRSGSTYYADSVKGRFTISRDNAKNTVYVQMNSLKPEDTAVYYCAASWTPRYLGFDHWGQGSQVTVSS", "polyreactivity (PSR sort gate)": "high polyreactivity"}
{"sequence": "QVQLVESGGGLVQAGGSLRLSCAACGSISVYNAMGWYRQAPGKERELVAAISWSGGRTSYADSVKGRFTISRDNAKNTVYLQMNSLKPEDTAVYYCAADELTVMWDEDYWGQGTQVTVSS", "polyreactivity (PSR sort gate)": "low polyreactivity"}
{"sequence": "QVQLVESGGGLVQAGGSLRLSCAAPGSTFVYYAMGWFRQAPGKEGELVAAISRSGGHTYYADSVKGRFTISRDKAKKTVYLQMNSLKPEETAVYYCAARSYGVQYYYWGQRTQVTVSS", "polyreactivity (PSR sort gate)": "high polyreactivity"}
{"sequence": "QVQLVESGGGLVQAGGSLRLSCAASAFTFRRYVKGWYRQAPGKERELVAAISSGGRTNYADSVKGRFTISRYNAKNTVYLQMNSLKPEDTAVYYCAADRYSSYYVLYDYWGQGTQVSVSS", "polyreactivity (PSR sort gate)": "high polyreactivity"}
{"sequence": "QVQLVESGGGLVQAGGSLRLSCAASAFTFYYYDMGWYRQAPGKERELVAAIDTSDGSTYYADSVKGRFTISRDNAKNTVYLQMNSLKPEDTAVYYCSAEVDWVPFLLVYWGQGTQVTVSS", "polyreactivity (PSR sort gate)": "low polyreactivity"}
{"sequence": "QVQLVESGGGLVQAGGSLRLSCAASAFYTNAMGWYRQAPGKERELVAAITSDGDSTYYADSVKGRFTISRDNAKNTVYLQMNSLKPEDNAVYYCAADAVPTSVVDWGFYGMYWGQGTQVTVSS", "polyreactivity (PSR sort gate)": "low polyreactivity"}
{"sequence": "QVQLVESGGGLVQAGGSLRLSCAASALTFHFNAMGWYRQAPGKERELVASITSSGGSTYYADSVKGRFTISRDNAKNTVSLQMNSLKPEDTAVYYCNAEGSSVLTGYWGYPPYWDTYDYSGQGTQVTVSS", "polyreactivity (PSR sort gate)": "low polyreactivity"}
{"sequence": "QVQLVESGGGLVQAGGSLRLSCAASANIFKPNAMGWYRQAPGKERELVAAISDSGGNTYYADSVKGRFTISRDNAKNTVYLQMNSLKPEDTAVYYCARRYYWYSGRYDYWGQGTQVTVSS", "polyreactivity (PSR sort gate)": "high polyreactivity"}
{"sequence": "QVQLVESGGGLVQAGGSLRLSCAASARIFKLNAMGGYRQAPVKERELVAAINSGTRTYYADSVKGRFSISRDNAKNTVYLQMKSLKPEDTAVYYGAAEGVWWYSRYDYWGQGTQVTVSS", "polyreactivity (PSR sort gate)": "high polyreactivity"}
{"sequence": "QVQLVESGGGLVQAGGSLRLSCAASARIFKTYAMGWYIQAPGKERELVATITWSGGSTYADSVKGRFTITRDNAKNTVYLQMNSLKPEDTAVYYCAAGRTYYSPGYRSYSGYDYWGQGTQVTLSS", "polyreactivity (PSR sort gate)": "high polyreactivity"}
{"sequence": "QVQLVESGGGLVQAGGSLRLSCAASARIFVINAMGWYRQAPGKERELVADITWSGGSTYADSVKGRFTISRDNAKNTVYLQMYSLKPEDTAVYYCAAVTFVPRSTNGISLYDYWGQGTQVTVSS", "polyreactivity (PSR sort gate)": "high polyreactivity"}
{"sequence": "QVQLVESGGGLVQAGGSLRLSCAASARIFVPYARGWYRQAPGKERELVAAIRKSGGSTYYADSVKGRFTISRDNAKNTVYLQMNSLKPDVTAVYYCAASTLGMVQTQPGKRKTYLYGYWGQGTQVTVSS", "polyreactivity (PSR sort gate)": "high polyreactivity"}
{"sequence": "QVQLVESGGGLVQAGGSLRLSCAASARIFWRNTMGWSRQAPGKERELVAAINYSGGRTYYADSVQGRFTISRDKAKNTVYLQMNSLKPEDTAVFDCAATPPVATNGRYYYWGQGTQVTVSS", "polyreactivity (PSR sort gate)": "low polyreactivity"}
{"sequence": "QVQLVESGGGLVQAGGSLRLSCAASARIFYPYAMGWYRQAPGKERELVAAINWIGGSTYYADSVKGRFTISRDNAKYTVYLQMNSLKPEDSAVYYCAASYWHRRYDYWGQGTQVTLSS", "polyreactivity (PSR sort gate)": "high polyreactivity"}
{"sequence": "QVQLVESGGGLVQAGGSLRLSCAASARIIFRNAMGWYRQAPGKERELVAAITYSGGSTYYADSVKGRFTISRDNAKNTVYLQMNSLKPEDTAVYYCGAGYWFCYSRVTRYDYWGQGTQVTVSS", "polyreactivity (PSR sort gate)": "high polyreactivity"}
{"sequence": "QVQLVESGGGLVQAGGSLRLSCAASARILAYYAMGWYRQAPGKERELVAAITSGGRTYYADSVKGRFTISRDNAKNTVYLQMNSLKPEDTAVYYGAVRWYPRYGSRYDYWGQGTQVTVSS", "polyreactivity (PSR sort gate)": "high polyreactivity"}
{"sequence": "QVQLVESGGGLVQAGGSLRLSCAASARTFSYYAMGLYRQEPGKERELVAAIRRSSGTTYYADSVKGRFTISSDNAKYSVYLQMNSLKPEDTADYYCNARSRRASIKRDYWGQGTQVSVSS", "polyreactivity (PSR sort gate)": "high polyreactivity"}
{"sequence": "QVQLVESGGGLVQAGGSLRLSCAASARTFTRYAIGWYRQAPGKERELVAAISFSVGSTYYADSVKGRFTISRDNAKYSVYLQMNRLKPEDTAVYYCARPSGDAWEGPRMDYWGQCTQVTVSS", "polyreactivity (PSR sort gate)": "low polyreactivity"}
{"sequence": "QVQLVESGGGLVQAGGSLRLSCAASASISYYYAMGWYRQETGKERELVAAITRTGTTNYADSVKGRFTISRDNAKNTVYLQMNSLKPEDTAVYYCAKRSTGRLQSYNYRGQGTQVTVSS", "polyreactivity (PSR sort gate)": "low polyreactivity"}
{"sequence": "QVQLVESGGGLVQAGGSLRLSCAASASTFGAYAMGWYRQAPGKERELVAAITESGDNTYYADSVKGRFTISRDNAKNTVYLQMNSLKPEDTAVFYCAADDGYSTYEYWGQGTQVTVSS", "polyreactivity (PSR sort gate)": "low polyreactivity"}
{"sequence": "QVQLVESGGGLVQAGGSLRLSCAASASTFYTKVMGWYRPAPGKERELVAAISSSGSRTYYADSVKGRFTISRDNAKNTVYLQMNSLKPEDTAVYYCNAYYRLEPDDGDYDYWGQGTQVTVSS", "polyreactivity (PSR sort gate)": "high polyreactivity"}
{"sequence": "QVQLVESGGGLVQAGGSLRLSCAASASTVSRYAMGWYRQAPGKEREVVAGISWSGGNTYSADSVKGRFTISRDNAKNTVYLQMNSLKPEDTAVYYCAADFLDYWGVYGWAEYEYWGQGTQVTVSS", "polyreactivity (PSR sort gate)": "low polyreactivity"}
{"sequence": "QVQLVESGGGLVQAGGSLRLSCAASAYIYRGYPLGRYRQAPGKERELVAAISNIGGTTYYADSVKGRFTISRDNAKNTVYLQMISLKREDTEVYYCAAEHSYWGWAYGYWGQGTQVTLSS", "polyreactivity (PSR sort gate)": "high polyreactivity"}
{"sequence": "QVQLVESGGGLVQAGGSLRLSCAASDLQILCYGWYRQPPGKERELFASITRGDGSTYYADSVKGRFTISRDNAKNTVFIQMNSLKPEDTAVYYCADYNDWRDELYDYWGQGTQVTVSS", "polyreactivity (PSR sort gate)": "low polyreactivity"}
{"sequence": "QVQLVESGGGLVQAGGSLRLSCAASGAIFAYNAMGWYRQAPGKEREFVAAISQSGGRTYYADSVKGRFTISRDYEKNTVYLQMNTLKPEDTAVYYCATDGIRLTSHRDYDYWGQGTQVTVSS", "polyreactivity (PSR sort gate)": "low polyreactivity"}
{"sequence": "QVQLVESGGGLVQAGGSLRLSCAASGAIFESNAMGWYRQAPGKEREFVAAIDQNDGSSNYADSVKGRFTISRDNAKNTVYLQMNSLKPEDSAVYYCAAEVPGYWYLDYEYWGHGTQVTVSS", "polyreactivity (PSR sort gate)": "low polyreactivity"}
{"sequence": "QVQLVESGGGLVQAGGSLRLSCAASGAIFRGYAMGWYRQAPGKERELVATITRRCGSTYYADSVKGRFTISRDNAKNTVYLQMNSLKPEDTAVYYCNARLTFLSSWLGKLQWGYDYWGQGTQVTVSS", "polyreactivity (PSR sort gate)": "low polyreactivity"}
{"sequence": "QVQLVESGGGLVQAGGSLRLSCAASGAIFVFYVMGWYRQAPGKERELVAAISNSGSSTYYADSVKGRFTISRDNAKNTVYLQMNSLKPEDTAVYYCAAEYKIPVGFDYWGQGTQVTVSS", "polyreactivity (PSR sort gate)": "low polyreactivity"}
{"sequence": "QVQLVESGGGLVQAGGSLRLSCAASGCTFDYNAMGWYRQAPGKEREFVAAIDYSSGSTYYADSVKGRFTISRDNAKNTVYLQMNCLKPEDTAVYYCNAPIAVGSGLFDYWGQGTQVTVSS", "polyreactivity (PSR sort gate)": "high polyreactivity"}
{"sequence": "QVQLVESGGGLVQAGGSLRLSCAASGDIFSRYMGWYRQAPGKERELVAAITRGGVSTYYADSVKGRFTISRDNAKNTVYLQMNSLKPEDTAVYYCATGRPVYYVASYDYDYWGQGTQVTVSS", "polyreactivity (PSR sort gate)": "low polyreactivity"}
{"sequence": "QVQLVESGGGLVQAGGSLRLSCAASGFIDAYTMGWYRPAPGKERELVAAITWSGGRTSYADSVKGRFTISRDTAKNTVYLQMNSLKPEDTAGYYCAKDVTPYSPDDDYWGQGTQVTVSS", "polyreactivity (PSR sort gate)": "low polyreactivity"}
